T1: APBA2_2, Q99767
T1 sequence (Q99767 654-744, limits assumed, looked up): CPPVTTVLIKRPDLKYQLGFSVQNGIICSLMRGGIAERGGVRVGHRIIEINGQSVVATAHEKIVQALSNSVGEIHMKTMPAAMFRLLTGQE

T2: DFNB31_2, Q9P202
T2 sequence (Q9P202 274-371, limits assumed, looked up): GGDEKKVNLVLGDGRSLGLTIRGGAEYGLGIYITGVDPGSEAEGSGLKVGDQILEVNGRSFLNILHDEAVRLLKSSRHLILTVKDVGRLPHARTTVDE

T3: GRIP1_7, Q9Y3R0
T3 sequence (Q9Y3R0 999-1096, limits assumed, looked up): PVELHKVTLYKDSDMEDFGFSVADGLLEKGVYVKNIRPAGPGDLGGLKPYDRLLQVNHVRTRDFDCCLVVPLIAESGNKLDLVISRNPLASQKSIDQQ

T4: HTRA4, P83105
T4 sequence (P83105 378-476, limits assumed, looked up): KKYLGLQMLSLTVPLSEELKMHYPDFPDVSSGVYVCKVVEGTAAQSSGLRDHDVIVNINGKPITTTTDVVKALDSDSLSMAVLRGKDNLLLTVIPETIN

T5: LIN7A, O14910
T5 sequence (O14910 103-200, limits assumed, looked up): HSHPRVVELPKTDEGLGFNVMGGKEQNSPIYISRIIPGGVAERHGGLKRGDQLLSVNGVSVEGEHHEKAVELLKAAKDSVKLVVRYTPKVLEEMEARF

T6: LNX2_2, Q8N448
T6 sequence (Q8N448 334-432, limits assumed, looked up): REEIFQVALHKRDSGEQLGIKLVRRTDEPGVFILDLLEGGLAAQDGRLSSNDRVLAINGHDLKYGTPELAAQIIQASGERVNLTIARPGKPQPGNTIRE

T7: MPDZ_10, O75970
T7 sequence (O75970 1624-1722, limits assumed, looked up): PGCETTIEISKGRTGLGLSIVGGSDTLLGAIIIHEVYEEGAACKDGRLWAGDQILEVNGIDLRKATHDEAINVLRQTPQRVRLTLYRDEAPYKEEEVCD

T8: MPP2, Q14168
T8 sequence (Q14168 180-250, limits assumed, looked up): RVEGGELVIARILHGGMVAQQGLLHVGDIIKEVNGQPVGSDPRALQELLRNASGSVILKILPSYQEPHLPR

T9: NHERF3_4, Q5T2W1
T9 sequence (Q5T2W1 373-468, limits assumed, looked up): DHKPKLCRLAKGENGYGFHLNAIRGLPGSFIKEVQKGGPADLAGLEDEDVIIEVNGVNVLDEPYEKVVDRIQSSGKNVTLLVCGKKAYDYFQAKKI

T10: PCLO, Q9Y6V0
T10 sequence (Q9Y6V0 4491-4600, limits assumed, looked up): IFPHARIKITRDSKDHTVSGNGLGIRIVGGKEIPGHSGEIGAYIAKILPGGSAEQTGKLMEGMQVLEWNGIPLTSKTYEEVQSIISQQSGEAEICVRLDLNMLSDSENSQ

T11: RADIL, Q96JH8
T11 sequence (Q96JH8 971-1071, limits assumed, looked up): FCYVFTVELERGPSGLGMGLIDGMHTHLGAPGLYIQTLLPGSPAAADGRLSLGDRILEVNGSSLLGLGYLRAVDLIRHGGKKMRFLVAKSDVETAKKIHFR

T12: TX1BP3, O14907
T12 sequence (O14907 10-122, limits assumed, looked up): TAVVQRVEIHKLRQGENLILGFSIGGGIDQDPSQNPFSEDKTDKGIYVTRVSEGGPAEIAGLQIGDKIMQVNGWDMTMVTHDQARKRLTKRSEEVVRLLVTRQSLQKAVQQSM


The binders below were run against T1, APBA2_2, Q99767 (assay: holdup assay). Settings: plain residues with an end cap or a label only (N-terminal biotin on a linker: ado-ado).
Design: key: below the threshold = too weak to quantify, mostly under pKd 3.1 to 4

pKd	Binder
below the threshold	MQILSKPEFI [NPSR1, Q6W5P4]
below the threshold	STYCDYTIEI [FAM71C, Q8NEG0]

Each binder was assayed against ARHGEF12, Q9NZN5-2 (assay: holdup assay). Settings: plain residues with an end cap or a label only (N-terminal biotin on a linker: ado-ado).
ARHGEF12, Q9NZN5-2, sequence (Q9NZN5 other isoform, or with tags, fused parts or gaps): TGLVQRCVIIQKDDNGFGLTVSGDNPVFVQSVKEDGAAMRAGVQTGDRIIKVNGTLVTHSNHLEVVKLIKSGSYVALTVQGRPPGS
Design: key: below the threshold = too weak to quantify, mostly under pKd 3.1 to 4

pKd	Binder
below the threshold	MQILSKPEFI [NPSR1, Q6W5P4]
3.76	STYCDYTIEI [FAM71C, Q8NEG0]

Each binder was assayed against T2, DFNB31_2, Q9P202 (assay: holdup assay). Settings: plain residues with an end cap or a label only (N-terminal biotin on a linker: ado-ado).
Design: key: below the threshold = too weak to quantify, mostly under pKd 3.1 to 4

pKd	Binder
below the threshold	MQILSKPEFI [NPSR1, Q6W5P4]
below the threshold	STYCDYTIEI [FAM71C, Q8NEG0]

The binders below were run against FRMPD2_2, Q68DX3 (assay: holdup assay). Settings: plain residues with an end cap or a label only (N-terminal biotin on a linker: ado-ado).
FRMPD2_2, Q68DX3, sequence (Q68DX3 944-1038): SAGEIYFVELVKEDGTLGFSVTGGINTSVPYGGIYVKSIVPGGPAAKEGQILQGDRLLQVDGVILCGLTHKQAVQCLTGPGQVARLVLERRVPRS
Design: key: below the threshold = too weak to quantify, mostly under pKd 3.1 to 4

pKd	Binder
below the threshold	MQILSKPEFI [NPSR1, Q6W5P4]
below the threshold	STYCDYTIEI [FAM71C, Q8NEG0]

What follows are binders tested against FRMPD2_3, Q68DX3 (assay: holdup assay). Settings: plain residues with an end cap or a label only (N-terminal biotin on a linker: ado-ado).
FRMPD2_3, Q68DX3, sequence (Q68DX3 1073-1166): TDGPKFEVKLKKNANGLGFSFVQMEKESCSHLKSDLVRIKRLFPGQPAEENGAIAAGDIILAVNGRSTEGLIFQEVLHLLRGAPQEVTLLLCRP
Design: key: below the threshold = too weak to quantify, mostly under pKd 3.1 to 4

pKd	Binder
below the threshold	MQILSKPEFI [NPSR1, Q6W5P4]
below the threshold	STYCDYTIEI [FAM71C, Q8NEG0]

These binders were tested against T3, GRIP1_7, Q9Y3R0 (assay: holdup assay). Settings: plain residues with an end cap or a label only (N-terminal biotin on a linker: ado-ado).
Design: key: below the threshold = too weak to quantify, mostly under pKd 3.1 to 4

pKd	Binder
below the threshold	MQILSKPEFI [NPSR1, Q6W5P4]
below the threshold	STYCDYTIEI [FAM71C, Q8NEG0]

Each binder was assayed against T4, HTRA4, P83105 (assay: holdup assay). Settings: plain residues with an end cap or a label only (N-terminal biotin on a linker: ado-ado).
Design: key: below the threshold = too weak to quantify, mostly under pKd 3.1 to 4

pKd	Binder
4.38	MQILSKPEFI [NPSR1, Q6W5P4]
4.96	STYCDYTIEI [FAM71C, Q8NEG0]

The binders below were run against IL16_3, Q14005 (assay: holdup assay). Settings: plain residues with an end cap or a label only (N-terminal biotin on a linker: ado-ado).
IL16_3, Q14005, sequence (Q14005 1107-1207): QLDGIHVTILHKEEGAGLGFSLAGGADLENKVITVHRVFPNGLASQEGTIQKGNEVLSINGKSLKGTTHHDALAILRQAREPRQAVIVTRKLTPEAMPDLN
Design: key: below the threshold = too weak to quantify, mostly under pKd 3.1 to 4

pKd	Binder
below the threshold	MQILSKPEFI [NPSR1, Q6W5P4]
below the threshold	STYCDYTIEI [FAM71C, Q8NEG0]

The binders below were run against Inadl_10, Q8NI35 (assay: holdup assay). Settings: plain residues with an end cap or a label only (N-terminal biotin on a linker: ado-ado).
Inadl_10, Q8NI35, sequence (Q8NI35 1673-1763): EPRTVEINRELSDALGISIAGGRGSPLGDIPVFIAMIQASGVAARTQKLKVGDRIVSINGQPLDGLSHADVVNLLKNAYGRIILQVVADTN
Design: key: below the threshold = too weak to quantify, mostly under pKd 3.1 to 4

pKd	Binder
below the threshold	MQILSKPEFI [NPSR1, Q6W5P4]
below the threshold	STYCDYTIEI [FAM71C, Q8NEG0]

These binders were tested against Inadl_5, Q8NI35 (assay: holdup assay). Settings: plain residues with an end cap or a label only (N-terminal biotin on a linker: ado-ado).
Inadl_5, Q8NI35, sequence (Q8NI35 673-780): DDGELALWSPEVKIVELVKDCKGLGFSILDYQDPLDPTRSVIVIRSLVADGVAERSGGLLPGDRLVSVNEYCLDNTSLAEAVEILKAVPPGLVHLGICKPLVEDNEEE
Design: key: below the threshold = too weak to quantify, mostly under pKd 3.1 to 4

pKd	Binder
3.53	MQILSKPEFI [NPSR1, Q6W5P4]
below the threshold	STYCDYTIEI [FAM71C, Q8NEG0]

The binders below were run against Inadl_8, Q8NI35 (assay: holdup assay). Settings: plain residues with an end cap or a label only (N-terminal biotin on a linker: ado-ado).
Inadl_8, Q8NI35, sequence (Q8NI35 1425-1530): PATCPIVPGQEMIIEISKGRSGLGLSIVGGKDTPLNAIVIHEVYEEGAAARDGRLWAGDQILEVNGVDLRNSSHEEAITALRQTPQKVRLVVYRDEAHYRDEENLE
Design: key: below the threshold = too weak to quantify, mostly under pKd 3.1 to 4

pKd	Binder
below the threshold	MQILSKPEFI [NPSR1, Q6W5P4]
below the threshold	STYCDYTIEI [FAM71C, Q8NEG0]

What follows are binders tested against Inadl_9, Q8NI35 (assay: holdup assay). Settings: plain residues with an end cap or a label only (N-terminal biotin on a linker: ado-ado).
Inadl_9, Q8NI35, sequence (Q8NI35 1530-1615): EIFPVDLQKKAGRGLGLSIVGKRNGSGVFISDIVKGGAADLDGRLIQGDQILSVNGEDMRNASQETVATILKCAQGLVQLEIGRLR
Design: key: below the threshold = too weak to quantify, mostly under pKd 3.1 to 4

pKd	Binder
3.64	MQILSKPEFI [NPSR1, Q6W5P4]
4.19	STYCDYTIEI [FAM71C, Q8NEG0]

The binders below were run against T5, LIN7A, O14910 (assay: holdup assay). Settings: plain residues with an end cap or a label only (N-terminal biotin on a linker: ado-ado).
Design: key: below the threshold = too weak to quantify, mostly under pKd 3.1 to 4

pKd	Binder
below the threshold	MQILSKPEFI [NPSR1, Q6W5P4]
below the threshold	STYCDYTIEI [FAM71C, Q8NEG0]

These binders were tested against LNX1_3, Q8TBB1 (assay: holdup assay). Settings: plain residues with an end cap or a label only (N-terminal biotin on a linker: ado-ado).
LNX1_3, Q8TBB1, sequence (Q8TBB1 500-596): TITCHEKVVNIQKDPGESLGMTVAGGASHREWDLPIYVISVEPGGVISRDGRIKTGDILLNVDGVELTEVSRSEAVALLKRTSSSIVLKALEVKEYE
Design: key: below the threshold = too weak to quantify, mostly under pKd 3.1 to 4

pKd	Binder
below the threshold	MQILSKPEFI [NPSR1, Q6W5P4]
below the threshold	STYCDYTIEI [FAM71C, Q8NEG0]

What follows are binders tested against T6, LNX2_2, Q8N448 (assay: holdup assay). Settings: plain residues with an end cap or a label only (N-terminal biotin on a linker: ado-ado).
Design: key: below the threshold = too weak to quantify, mostly under pKd 3.1 to 4

pKd	Binder
below the threshold	MQILSKPEFI [NPSR1, Q6W5P4]
4.96	STYCDYTIEI [FAM71C, Q8NEG0]

Each binder was assayed against MAGI1_1, Q96QZ7 (assay: holdup assay). Settings: plain residues with an end cap or a label only (N-terminal biotin on a linker: ado-ado).
MAGI1_1, Q96QZ7, sequence (Q96QZ7 1-106): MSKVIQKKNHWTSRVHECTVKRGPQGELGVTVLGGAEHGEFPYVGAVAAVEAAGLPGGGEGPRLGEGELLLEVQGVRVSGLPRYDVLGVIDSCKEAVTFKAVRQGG
Design: key: below the threshold = too weak to quantify, mostly under pKd 3.1 to 4

pKd	Binder
below the threshold	MQILSKPEFI [NPSR1, Q6W5P4]
below the threshold	STYCDYTIEI [FAM71C, Q8NEG0]

The binders below were run against MAGI1_2, Q96QZ7 (assay: holdup assay). Settings: plain residues with an end cap or a label only (N-terminal biotin on a linker: ado-ado).
MAGI1_2, Q96QZ7, sequence (Q96QZ7 456-580): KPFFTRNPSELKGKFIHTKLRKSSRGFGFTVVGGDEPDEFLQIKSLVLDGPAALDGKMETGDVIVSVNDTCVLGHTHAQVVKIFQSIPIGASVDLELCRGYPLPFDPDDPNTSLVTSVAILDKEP
Design: key: below the threshold = too weak to quantify, mostly under pKd 3.1 to 4

pKd	Binder
below the threshold	MQILSKPEFI [NPSR1, Q6W5P4]
below the threshold	STYCDYTIEI [FAM71C, Q8NEG0]

The binders below were run against MAGI3_2, Q5TCQ9 (assay: holdup assay). Settings: plain residues with an end cap or a label only (N-terminal biotin on a linker: ado-ado).
MAGI3_2, Q5TCQ9, sequence (Q5TCQ9 398-503): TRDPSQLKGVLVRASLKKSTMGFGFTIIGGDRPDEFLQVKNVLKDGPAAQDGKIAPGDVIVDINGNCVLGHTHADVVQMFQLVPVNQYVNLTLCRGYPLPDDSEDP
Design: key: below the threshold = too weak to quantify, mostly under pKd 3.1 to 4

pKd	Binder
below the threshold	MQILSKPEFI [NPSR1, Q6W5P4]
below the threshold	STYCDYTIEI [FAM71C, Q8NEG0]

What follows are binders tested against T7, MPDZ_10, O75970 (assay: holdup assay). Settings: plain residues with an end cap or a label only (N-terminal biotin on a linker: ado-ado).
Design: key: below the threshold = too weak to quantify, mostly under pKd 3.1 to 4

pKd	Binder
below the threshold	MQILSKPEFI [NPSR1, Q6W5P4]
below the threshold	STYCDYTIEI [FAM71C, Q8NEG0]

These binders were tested against T8, MPP2, Q14168 (assay: holdup assay). Settings: plain residues with an end cap or a label only (N-terminal biotin on a linker: ado-ado).
Design: key: below the threshold = too weak to quantify, mostly under pKd 3.1 to 4

pKd	Binder
below the threshold	MQILSKPEFI [NPSR1, Q6W5P4]
below the threshold	STYCDYTIEI [FAM71C, Q8NEG0]

What follows are binders tested against T9, NHERF3_4, Q5T2W1 (assay: holdup assay). Settings: plain residues with an end cap or a label only (N-terminal biotin on a linker: ado-ado).
Design: key: below the threshold = too weak to quantify, mostly under pKd 3.1 to 4

pKd	Binder
3.51	MQILSKPEFI [NPSR1, Q6W5P4]
below the threshold	STYCDYTIEI [FAM71C, Q8NEG0]

These binders were tested against T10, PCLO, Q9Y6V0 (assay: holdup assay). Settings: plain residues with an end cap or a label only (N-terminal biotin on a linker: ado-ado).
Design: key: below the threshold = too weak to quantify, mostly under pKd 3.1 to 4

pKd	Binder
below the threshold	MQILSKPEFI [NPSR1, Q6W5P4]
below the threshold	STYCDYTIEI [FAM71C, Q8NEG0]

What follows are binders tested against T11, RADIL, Q96JH8 (assay: holdup assay). Settings: plain residues with an end cap or a label only (N-terminal biotin on a linker: ado-ado).
Design: key: below the threshold = too weak to quantify, mostly under pKd 3.1 to 4

pKd	Binder
4.42	MQILSKPEFI [NPSR1, Q6W5P4]
4.58	STYCDYTIEI [FAM71C, Q8NEG0]

The binders below were run against TJP1_2, Q07157 (assay: holdup assay). Settings: plain residues with an end cap or a label only (N-terminal biotin on a linker: ado-ado).
TJP1_2, Q07157, sequence (Q07157 181-274): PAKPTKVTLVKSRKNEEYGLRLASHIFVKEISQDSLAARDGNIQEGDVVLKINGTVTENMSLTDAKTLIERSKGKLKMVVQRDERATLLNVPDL
Design: key: below the threshold = too weak to quantify, mostly under pKd 3.1 to 4

pKd	Binder
below the threshold	MQILSKPEFI [NPSR1, Q6W5P4]
3.65	STYCDYTIEI [FAM71C, Q8NEG0]

What follows are binders tested against TJP2_1, Q9UDY2 (assay: holdup assay). Settings: plain residues with an end cap or a label only (N-terminal biotin on a linker: ado-ado).
TJP2_1, Q9UDY2, sequence (Q9UDY2 24-128): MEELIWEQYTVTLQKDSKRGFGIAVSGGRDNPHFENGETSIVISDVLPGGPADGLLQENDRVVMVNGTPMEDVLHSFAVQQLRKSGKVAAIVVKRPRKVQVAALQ
Design: key: below the threshold = too weak to quantify, mostly under pKd 3.1 to 4

pKd	Binder
below the threshold	MQILSKPEFI [NPSR1, Q6W5P4]
below the threshold	STYCDYTIEI [FAM71C, Q8NEG0]

The binders below were run against T12, TX1BP3, O14907 (assay: holdup assay). Settings: plain residues with an end cap or a label only (N-terminal biotin on a linker: ado-ado).
Design: key: below the threshold = too weak to quantify, mostly under pKd 3.1 to 4

pKd	Binder
below the threshold	MQILSKPEFI [NPSR1, Q6W5P4]
below the threshold	STYCDYTIEI [FAM71C, Q8NEG0]
